± gives the uncertainty stated by the source.
Experiment: protein stability index of a GFP-peptide fusion (yeast GPS) (PSI 1-4); higher = more stable; sorted into four equal gates, so the index is relative within each strain
Outline: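 Tiled 17-residue peptides from yeast proteins were fused downstream of GFP on a plasmid that also expresses Cherry, and the pooled library was carried in yeast. Mid-log cultures grown in leucine-free medium were sorted into four equal gates by GFP/Cherry fluorescence ratio. Plasmids from each gate were PCR-amplified and Illumina-sequenced, and reads were assigned to strains by barcodes. Each peptide's protein stability index is the sum, over gates, of the gate's read frequency multiplied by its gate number.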

Sequence	protein stability index (doa10∆)	protein stability index (pdr5∆)	protein stability index (san1∆)	protein stability index (ubr1∆)
EDLLECLDRCKEQYNRY [MTR3]	3.18 ± 0.11	3.46 ± 0.08	3.24 ± 0.079	3.38 ± 0.085
EGTRNRFSYSPPKEGNY [YMR129W/POM152]	3.19 ± 0.13	3.06 ± 0.062	2.88 ± 0.043	3.13 ± 0.042
DRSASRAVFLFRCKETH [RPC82]	1.77 ± 0.084	3.07 ± 0.15	–	3.02 ± 0.17
IRSERFKVARELKTEAA [ITC1]	–	2.25 ± 0.25	–	–
EIKDAETSCDNYHPMNI [SMC4]	2.64 ± 0.057	2.83 ± 0.055	3.15 ± 0.043	2.98 ± 0.044
EIKDGRSLFLRNRGKIH [YMR153W/NUP53]	2.01 ± 0.095	2.2 ± 0.068	1.54 ± 0.16	2.46 ± 0.066
GTCNGDITTSIMDNFLE [RPN1]	2.77 ± 0.054	2.85 ± 0.057	2.86 ± 0.056	2.82 ± 0.068
AGIRPKFILALNDEGEP [RPN1]	–	1.9 ± 0.14	2.72 ± 0.24	1.46 ± 0.073
NRQVMHKMGVERSSKRL [SIR3]	3.23 ± 0.17	3.49 ± 0.14	3.46 ± 0.14	3.34 ± 0.19
DTKNSKSESPSEVLVDT [ISW2]	3.11 ± 0.082	3.12 ± 0.07	2.97 ± 0.082	3.27 ± 0.063
RALFRQLKRWYWQFNGV [RMP1]	2.29 ± 0.18	1.24 ± 0.12	1.19 ± 0.18	1.34 ± 0.11
SSTKDYLTPPHECRLRD [RET1]	3.34 ± 0.12	3.22 ± 0.14	3.2 ± 0.18	3.25 ± 0.16
EVILVDPQHKAIRRDAR [RPL15A]	2.87 ± 0.088	3.15 ± 0.13	2.78 ± 0.28	2.97 ± 0.17
NHVMPLKPVDKLKPMNI [SIN4]	2.84 ± 0.1	2.93 ± 0.083	2.83 ± 0.087	2.94 ± 0.094
RMNTIITHPGKMELVYV [SIR4]	–	–	–	1.21 ± 0.24
FNRALDQSISKLQSWDK [NNF1]	1.63 ± 0.066	1.49 ± 0.068	1.51 ± 0.085	1.78 ± 0.051
ERGLKVKEYQLRDRNFS [RPL11A]	–	2.63 ± 0.2	–	–
QQLLPAPQLFPYGSFHQ [DSN1]	2.72 ± 0.09	3.01 ± 0.1	2.72 ± 0.072	3.04 ± 0.08
EDFLDKSYYLNTVMLQG [AAR2]	2.02 ± 0.067	2.24 ± 0.097	2.24 ± 0.15	1.22 ± 0.052
NSIDINYKGLPKKYKEN [SMC1]	2.91 ± 0.068	3.16 ± 0.08	3.21 ± 0.07	3.36 ± 0.059
FDLVRNIVKQNEGIDLD [SMC2]	3.11 ± 0.13	3.51 ± 0.12	3.24 ± 0.081	3.45 ± 0.1
DVIATEPQGAVTHMDQI [SMD3]	3.03 ± 0.073	2.83 ± 0.084	2.28 ± 0.11	2.47 ± 0.088
EGLCIVAGSKCWAVRAD [RRP45]	2.38 ± 0.073	2.43 ± 0.071	2.53 ± 0.079	2.57 ± 0.07
LGYKAKQGFVIYRVRVR [RPL15A]	2.22 ± 0.1	2.04 ± 0.11	2.06 ± 0.15	1.84 ± 0.11
PNDSNDEKVTILVDSLT [SWI1]	2.67 ± 0.057	2.81 ± 0.065	3.01 ± 0.071	3.06 ± 0.042
ATPQEAQFYLGKRIAYV [RPL33B]	1.64 ± 0.11	2.2 ± 0.068	1.76 ± 0.076	2.43 ± 0.077

Sequence	protein stability index (doa10∆)	protein stability index (pdr5∆)	protein stability index (san1∆)	protein stability index (ubr1∆)
FEKVGSHLYKARLDGHD [RPN14]	2.92 ± 0.26	3.51 ± 0.19	–	3.31 ± 0.14
KLWFQLSESLTKFFDDA [RPN9]	3.02 ± 0.083	3.24 ± 0.099	3.02 ± 0.066	3.17 ± 0.097
EPLAIALSMGKSSAFVI [ARP7]	1.48 ± 0.076	2.02 ± 0.071	1.67 ± 0.1	1.77 ± 0.089
LNATTAMDLAQMLIQGV [BRR2]	3.08 ± 0.18	1.68 ± 0.11	2.58 ± 0.094	1.55 ± 0.083
YIHRIGRTGRAANEGTA [PRP28]	3.1 ± 0.11	3.29 ± 0.1	3.26 ± 0.053	3.29 ± 0.071
KSLGLKLPLSVINVSAQ [RPS17A]	1.35 ± 0.052	1.36 ± 0.048	1.41 ± 0.13	1.37 ± 0.073
LEDLKDVYASKVRLNAS [PRP8]	2.31 ± 0.043	2.1 ± 0.041	2.47 ± 0.047	2.27 ± 0.04
LGITGLATDVTTLNEMF [PUP3]	2.2 ± 0.16	2.39 ± 0.11	2.24 ± 0.16	2.27 ± 0.11
SIFEDAIKELNYNRIAK [NUT1]	2.79 ± 0.13	3.12 ± 0.19	3.07 ± 0.075	2.92 ± 0.12
LDNKGSGEDAEEELWNS [YIL149C/MLP2]	3.31 ± 0.17	2.92 ± 0.14	3.16 ± 0.093	3.22 ± 0.1
GKLEVPGYVDIVKTSSG [RPS19A]	3.38 ± 0.15	2.85 ± 0.092	3.19 ± 0.07	3.2 ± 0.06
NNGDKDHLKLVSLFSNL [YIL149C/MLP2]	2.42 ± 0.09	2.67 ± 0.19	2.5 ± 0.26	2.44 ± 0.096
DGGLFTLFVRDQDSAVV [QCR2]	3.04 ± 0.11	3.16 ± 0.078	3.25 ± 0.059	3.32 ± 0.057
MNTVPFTSAPIEVTIGI [AAR2]	1.49 ± 0.092	2.01 ± 0.12	1.47 ± 0.22	1.64 ± 0.083
KEKIKGLQDEIMKIGGI [SMC4]	3 ± 0.09	3.19 ± 0.055	3.17 ± 0.049	3.36 ± 0.063
ILPQQSKLKLKNLLRKN [ECM29]	2.39 ± 0.089	1.79 ± 0.051	2.01 ± 0.07	2.25 ± 0.074
HYDNTTRNSLGNVIQFI [RPO21]	2.45 ± 0.04	2.62 ± 0.043	2.87 ± 0.034	2.86 ± 0.03
NDPEILKKIASIPNLFP [SWI1]	2.36 ± 0.049	2.19 ± 0.036	2.36 ± 0.058	2.53 ± 0.035
VKLGNIWKESLIELSGG [SMC2]	2.22 ± 0.18	2.24 ± 0.098	2.12 ± 0.14	2.19 ± 0.1
IRKLLEKINRMIIFLKN [CSI1]	1.81 ± 0.079	1.5 ± 0.063	1.31 ± 0.11	1.19 ± 0.041
PRPSYSSRPNVNTTRRF [YMR129W/POM152]	2.89 ± 0.099	2.97 ± 0.096	2.92 ± 0.074	2.82 ± 0.067
ETTLGEMAEKIDFTLLN [PRP8]	3.12 ± 0.093	3.17 ± 0.1	3.19 ± 0.098	2.71 ± 0.082
TSAKEPSENDVFYRMQQ [RPO31]	3.08 ± 0.082	3.08 ± 0.092	3.13 ± 0.14	2.7 ± 0.099
MVPKRSTIITKAINQEL [YCS4]	1.39 ± 0.1	1.88 ± 0.062	1.58 ± 0.09	2.24 ± 0.068
FKKLNSKNMSKSPSLTA [YMR153W/NUP53]	2.21 ± 0.065	2.38 ± 0.048	2.19 ± 0.067	2.13 ± 0.071

— the supplement of paper PMC9732359
